# Source: patent US20250262210A1 (TRUSTEES OF COLUMBIA UNIVERSITY IN THE CITY OF NEW YORK, published 2025)
# T1: UBE4B (human, UniProt O95155 1-1302, limits assumed)
# T1 sequence (looked up): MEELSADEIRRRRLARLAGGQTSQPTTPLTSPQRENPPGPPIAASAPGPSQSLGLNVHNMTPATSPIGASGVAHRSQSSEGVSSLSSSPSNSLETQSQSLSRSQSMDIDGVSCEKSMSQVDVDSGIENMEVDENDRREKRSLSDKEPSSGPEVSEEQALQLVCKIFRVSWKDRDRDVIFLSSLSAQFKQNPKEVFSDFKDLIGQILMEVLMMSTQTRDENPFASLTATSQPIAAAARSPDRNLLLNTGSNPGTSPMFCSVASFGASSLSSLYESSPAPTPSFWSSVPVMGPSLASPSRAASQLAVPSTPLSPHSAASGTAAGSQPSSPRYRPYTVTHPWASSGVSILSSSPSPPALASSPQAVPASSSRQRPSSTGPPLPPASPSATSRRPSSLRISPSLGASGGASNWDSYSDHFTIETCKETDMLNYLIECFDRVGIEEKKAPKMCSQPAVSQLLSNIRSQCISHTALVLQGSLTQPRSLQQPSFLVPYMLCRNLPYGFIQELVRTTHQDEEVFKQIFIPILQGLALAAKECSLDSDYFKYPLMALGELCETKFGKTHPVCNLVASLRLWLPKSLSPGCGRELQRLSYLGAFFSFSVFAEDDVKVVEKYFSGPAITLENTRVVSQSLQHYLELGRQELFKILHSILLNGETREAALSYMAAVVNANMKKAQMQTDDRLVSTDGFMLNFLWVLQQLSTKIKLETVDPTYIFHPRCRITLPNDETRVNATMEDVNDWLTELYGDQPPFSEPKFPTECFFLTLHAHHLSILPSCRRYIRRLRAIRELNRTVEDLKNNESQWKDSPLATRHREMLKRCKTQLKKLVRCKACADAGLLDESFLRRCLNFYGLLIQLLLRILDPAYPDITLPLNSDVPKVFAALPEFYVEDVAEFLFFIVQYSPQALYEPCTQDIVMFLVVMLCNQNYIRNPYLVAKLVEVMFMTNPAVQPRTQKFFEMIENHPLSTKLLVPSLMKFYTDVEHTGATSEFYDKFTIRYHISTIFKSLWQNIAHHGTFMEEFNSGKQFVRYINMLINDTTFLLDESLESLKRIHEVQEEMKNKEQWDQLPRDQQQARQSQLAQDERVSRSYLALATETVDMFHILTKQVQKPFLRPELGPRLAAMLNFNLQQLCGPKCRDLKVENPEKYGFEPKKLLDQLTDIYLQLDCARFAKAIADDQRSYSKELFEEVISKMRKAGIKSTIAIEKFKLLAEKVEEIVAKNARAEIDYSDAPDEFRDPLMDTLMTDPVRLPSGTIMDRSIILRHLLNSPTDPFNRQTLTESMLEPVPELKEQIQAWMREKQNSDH
# T2: EMC1 (human, UniProt Q8N766 23-993, limits assumed)
# T2 sequence (looked up): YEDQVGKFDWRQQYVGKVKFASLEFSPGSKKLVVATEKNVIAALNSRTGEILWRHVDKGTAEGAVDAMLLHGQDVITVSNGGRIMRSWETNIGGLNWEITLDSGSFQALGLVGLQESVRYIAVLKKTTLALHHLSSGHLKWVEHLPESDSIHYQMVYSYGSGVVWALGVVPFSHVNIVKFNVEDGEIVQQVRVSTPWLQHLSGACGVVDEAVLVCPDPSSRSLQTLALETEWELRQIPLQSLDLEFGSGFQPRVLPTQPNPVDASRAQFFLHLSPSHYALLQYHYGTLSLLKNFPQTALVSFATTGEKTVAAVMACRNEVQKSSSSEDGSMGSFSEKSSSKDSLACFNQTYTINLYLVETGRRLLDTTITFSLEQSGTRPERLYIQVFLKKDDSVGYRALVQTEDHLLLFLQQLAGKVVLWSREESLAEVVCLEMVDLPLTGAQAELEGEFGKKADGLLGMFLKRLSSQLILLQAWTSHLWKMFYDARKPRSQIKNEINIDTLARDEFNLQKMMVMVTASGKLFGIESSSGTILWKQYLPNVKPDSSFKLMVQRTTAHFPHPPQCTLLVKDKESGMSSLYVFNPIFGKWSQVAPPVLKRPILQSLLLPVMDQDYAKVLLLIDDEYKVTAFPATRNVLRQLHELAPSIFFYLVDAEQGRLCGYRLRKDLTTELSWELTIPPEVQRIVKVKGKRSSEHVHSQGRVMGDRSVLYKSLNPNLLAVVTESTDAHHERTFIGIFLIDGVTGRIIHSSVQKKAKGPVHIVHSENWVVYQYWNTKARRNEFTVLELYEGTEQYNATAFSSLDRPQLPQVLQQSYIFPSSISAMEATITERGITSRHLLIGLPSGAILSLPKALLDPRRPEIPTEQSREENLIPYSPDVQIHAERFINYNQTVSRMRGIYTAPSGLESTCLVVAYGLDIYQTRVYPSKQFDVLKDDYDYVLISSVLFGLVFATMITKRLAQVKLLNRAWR
# Legend:
# UBE4B = molecular target: T1, UBE4B; test: IP/MS, LZTR1 wild type-FLAG, U87
# Procedure, shortened: (§1)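 Extracted peptides in 3% acetonitrile/0.1% formic acid ran on a 50 cm C18 column into an Orbitrap Fusion, with MaxQuant identification and spectral counting.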
# EMC1 = molecular target: T2, EMC1; test: IP/MS, LZTR1 wild type-FLAG, U87
# Procedure, shortened: as §1
binder,measurement,setting,value
"LZTR1-FLAG (other, human, UniProt Q8N653 1-840, looked up, Expressed in HEK 293T, HeLa or U87 cells; used as cell lysate; also called LZTR1 wild type-FLAG; LZTR1 WT; not shown: FLAG tag at the C-terminus) MAGPGSTGGQIGAAALAGGARSKVAPSVDFDHSCSDSVEYLTLNFGPFETVHRWRRLPPCDEFVGARRSKHTVVAYKDAIYVFGGDNGKTMLNDLLRFDVKDCSWCRAFTTGTPPAPRYHHSAVVYGSSMFVFGGYTGDIYSNSNLKNKNDLFEYKFATGQWTEWKIEGRLPVARSAHGATVYSDKLWIFAGYDGNARLNDMWTIGLQDRELTCWEEVAQSGEIPPSCCNFPVAVCRDKMFVFSGQSGAKITNNLFQFEFKDKTWTRIPTEHLLRGSPPPPQRRYGHTMVAFDRHLYVFGGAADNTLPNELHCYDVDFQTWEVVQPSSDSEVGGAEVPERACASEEVPTLTYEERVGFKKSRDVFGLDFGTTSAKQPTQPASELPSGRLFHAAAVISDAMYIFGGTVDNNIRSGEMYRFQFSCYPKCTLHEDYGRLWESRQFCDVEFVLGEKEECVQGHVAIVTARSRWLRRKITQARERLAQKLEQEAAPVPREAPGVAAGGARPPLLHVAIREAEARPFEVLMQFLYTDKIKYPRKGHVEDVLLIMDVYKLALSFQLCRLEQLCRQYIEASVDLQNVLVVCESAARLQLSQLKEHCLNFVVKESHFNQVIMMKEFERLSSPLIVEIVRRKQQPPPRTPLDQPVDIGTSLIQDMKAYLEGAGAEFCDITLLLDGHPRPAHKAILAARSSYFEAMFRSFMPEDGQVNISIGEMVPSRQAFESMLRYIYYGEVNMPPEDSLYLFAAPYYYGFYNNRLQAYCKQNLEMNVTVQNVLQILEAADKTQALDMKRHCLHIIVHQFTKVSKLPTLRSLSQQLLLDIIDSLASHISDKQCAELGADI",binding result,UBE4B,binds
same,binding result,EMC1,binds
